Our source for the Kd values is paper PMC6363164.

For this experiment, the target named is Rab7-RILP complex (human) (UniProt P51149). The experiment can be described thus: ITC; 20 °C; 20 mM Tris-HCl pH 7.5, 150 mM NaCl; 1 mM ORP1 ANK in the syringe, 0.1 mM Rab7 or Rab7-RILP in the cell; Rab7 Q67L with 0.5 mM GTP, Rab7 T22N with 0.5 mM GDP; independent binding model.

B1: human ORP1 ANK domain (residue 5-152) (domain or fragment)
chain: AEQQLLHHARNGNAEEVRQLLETMARNEVIADINCKGRSKSNLGWTPLHLACYFGHRQVVQDLLKAGAEVNVLNDMGDTPLHRAAFTGRKELVMLLLEYNADTTIVNGSGQTAKEVTHAEEIRSMLEAVERTQQRKLEELLLAAAREG
Molecule B1 showed a dissociation constant Kd of 5 µM.
